Source: patent publication US20250340854, “ENGINEERED Cas12f PROTEIN” (THE UNIVERSITY OF TOKYO, published 2025)

T1: Cas12f RARR (uncultured archaeon, UniProt A0A482D308 SEQ:1-529, I118R,Y122A,I126R,M178R)
T1 sequence: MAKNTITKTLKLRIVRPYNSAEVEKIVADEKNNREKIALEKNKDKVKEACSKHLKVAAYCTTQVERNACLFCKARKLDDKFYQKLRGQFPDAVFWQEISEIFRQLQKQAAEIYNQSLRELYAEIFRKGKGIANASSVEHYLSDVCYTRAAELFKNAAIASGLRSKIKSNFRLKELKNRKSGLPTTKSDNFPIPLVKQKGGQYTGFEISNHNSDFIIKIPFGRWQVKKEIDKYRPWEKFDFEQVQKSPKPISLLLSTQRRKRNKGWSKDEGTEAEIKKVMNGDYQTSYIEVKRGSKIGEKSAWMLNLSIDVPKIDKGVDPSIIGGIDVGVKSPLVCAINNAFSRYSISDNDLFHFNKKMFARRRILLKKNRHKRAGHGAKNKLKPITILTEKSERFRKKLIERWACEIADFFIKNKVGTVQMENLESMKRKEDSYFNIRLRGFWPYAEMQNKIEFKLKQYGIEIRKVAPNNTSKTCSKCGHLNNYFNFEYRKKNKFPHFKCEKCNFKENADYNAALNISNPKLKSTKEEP

T2: Cas12f (Cas12f1, Cas14a) (uncultured archaeon, UniProt A0A482D308 SEQ:1-529)
T2 sequence: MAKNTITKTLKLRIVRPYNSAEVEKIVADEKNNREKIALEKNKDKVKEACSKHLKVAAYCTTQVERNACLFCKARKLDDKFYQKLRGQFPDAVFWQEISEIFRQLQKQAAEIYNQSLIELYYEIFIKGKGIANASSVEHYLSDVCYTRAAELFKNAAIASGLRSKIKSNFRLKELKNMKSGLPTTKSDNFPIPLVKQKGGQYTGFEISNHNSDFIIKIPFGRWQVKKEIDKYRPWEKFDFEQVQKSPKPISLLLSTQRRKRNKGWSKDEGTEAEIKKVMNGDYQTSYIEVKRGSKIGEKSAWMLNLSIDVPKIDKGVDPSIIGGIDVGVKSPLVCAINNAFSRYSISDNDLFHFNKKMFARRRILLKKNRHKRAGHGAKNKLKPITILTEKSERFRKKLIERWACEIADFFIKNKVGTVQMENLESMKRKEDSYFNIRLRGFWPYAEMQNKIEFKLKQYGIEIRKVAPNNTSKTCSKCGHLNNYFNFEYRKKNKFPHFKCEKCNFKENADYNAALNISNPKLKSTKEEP


What was measured:
Cas12f RARR = biological target: T1, Cas12f RARR; assay: size exclusion co-elution; 5 mM MgCl2, 50 mM NaCl, pH 8.0; conditions: tags: N-terminal His6; chain copies: 2 (stated)
Procedure: (§1) The peak fraction was analyzed by SDS-PAGE and Urea PAGE. The WT Cas12f protein and the RARR mutant were each eluted together with sgRNA at the same position.

Cas12f (Cas12f1, Cas14a) = biological target: T2, Cas12f (Cas12f1, Cas14a); assay: as above; conditions: tags: N-terminal His6; chain copies: 2 (stated)
Procedure: as §1

| Binder | binding result (Cas12f RARR) | binding result (Cas12f (Cas12f1, Cas14a)) | in vitro DNA cleavage activity |
| --- | --- | --- | --- |
| WT sgRNA (ssRNA) RNA: GGUUCACUGAUAAAGUGGAGAACCGCUUCACCAAAAGCUGUCCCUUAGGGGAUUAGAACUUGAGUGAAGGUGGGCUGCUUGCAUCAGCCUAAUGUCGAGAAGUGCUUUCUUCGGAAAGUAACCCUCGAAACAAAUUCAUUUGAAAGAAUGAAGGAAUGCAACGGAAAUUAGGUGCGCUUGGC | binds | binds |  |
| Cas12f I118R mutant (protein) MAKNTITKTLKLRIVRPYNSAEVEKIVADEKNNREKIALEKNKDKVKEACSKHLKVAAYCTTQVERNACLFCKARKLDDKFYQKLRGQFPDAVFWQEISEIFRQLQKQAAEIYNQSLRELYYEIFIKGKGIANASSVEHYLSDVCYTRAAELFKNAAIASGLRSKIKSNFRLKELKNMKSGLPTTKSDNFPIPLVKQKGGQYTGFEISNHNSDFIIKIPFGRWQVKKEIDKYRPWEKFDFEQVQKSPKPISLLLSTQRRKRNKGWSKDEGTEAEIKKVMNGDYQTSYIEVKRGSKIGEKSAWMLNLSIDVPKIDKGVDPSIIGGIDVGVKSPLVCAINNAFSRYSISDNDLFHFNKKMFARRRILLKKNRHKRAGHGAKNKLKPITILTEKSERFRKKLIERWACEIADFFIKNKVGTVQMENLESMKRKEDSYFNIRLRGFWPYAEMQNKIEFKLKQYGIEIRKVAPNNTSKTCSKCGHLNNYFNFEYRKKNKFPHFKCEKCNFKENADYNAALNISNPKLKSTKEEP |  |  | reduced the DNA cleavage activity |
| Cas12f M178R mutant (protein) MAKNTITKTLKLRIVRPYNSAEVEKIVADEKNNREKIALEKNKDKVKEACSKHLKVAAYCTTQVERNACLFCKARKLDDKFYQKLRGQFPDAVFWQEISEIFRQLQKQAAEIYNQSLIELYYEIFIKGKGIANASSVEHYLSDVCYTRAAELFKNAAIASGLRSKIKSNFRLKELKNRKSGLPTTKSDNFPIPLVKQKGGQYTGFEISNHNSDFIIKIPFGRWQVKKEIDKYRPWEKFDFEQVQKSPKPISLLLSTQRRKRNKGWSKDEGTEAEIKKVMNGDYQTSYIEVKRGSKIGEKSAWMLNLSIDVPKIDKGVDPSIIGGIDVGVKSPLVCAINNAFSRYSISDNDLFHFNKKMFARRRILLKKNRHKRAGHGAKNKLKPITILTEKSERFRKKLIERWACEIADFFIKNKVGTVQMENLESMKRKEDSYFNIRLRGFWPYAEMQNKIEFKLKQYGIEIRKVAPNNTSKTCSKCGHLNNYFNFEYRKKNKFPHFKCEKCNFKENADYNAALNISNPKLKSTKEEP |  |  | reduced the DNA cleavage activity |
| Cas12f I126R mutant (protein) MAKNTITKTLKLRIVRPYNSAEVEKIVADEKNNREKIALEKNKDKVKEACSKHLKVAAYCTTQVERNACLFCKARKLDDKFYQKLRGQFPDAVFWQEISEIFRQLQKQAAEIYNQSLIELYYEIFRKGKGIANASSVEHYLSDVCYTRAAELFKNAAIASGLRSKIKSNFRLKELKNMKSGLPTTKSDNFPIPLVKQKGGQYTGFEISNHNSDFIIKIPFGRWQVKKEIDKYRPWEKFDFEQVQKSPKPISLLLSTQRRKRNKGWSKDEGTEAEIKKVMNGDYQTSYIEVKRGSKIGEKSAWMLNLSIDVPKIDKGVDPSIIGGIDVGVKSPLVCAINNAFSRYSISDNDLFHFNKKMFARRRILLKKNRHKRAGHGAKNKLKPITILTEKSERFRKKLIERWACEIADFFIKNKVGTVQMENLESMKRKEDSYFNIRLRGFWPYAEMQNKIEFKLKQYGIEIRKVAPNNTSKTCSKCGHLNNYFNFEYRKKNKFPHFKCEKCNFKENADYNAALNISNPKLKSTKEEP |  |  | reduced the DNA cleavage activity |
| Cas12f Y122A mutant (protein) MAKNTITKTLKLRIVRPYNSAEVEKIVADEKNNREKIALEKNKDKVKEACSKHLKVAAYCTTQVERNACLFCKARKLDDKFYQKLRGQFPDAVFWQEISEIFRQLQKQAAEIYNQSLIELYAEIFIKGKGIANASSVEHYLSDVCYTRAAELFKNAAIASGLRSKIKSNFRLKELKNMKSGLPTTKSDNFPIPLVKQKGGQYTGFEISNHNSDFIIKIPFGRWQVKKEIDKYRPWEKFDFEQVQKSPKPISLLLSTQRRKRNKGWSKDEGTEAEIKKVMNGDYQTSYIEVKRGSKIGEKSAWMLNLSIDVPKIDKGVDPSIIGGIDVGVKSPLVCAINNAFSRYSISDNDLFHFNKKMFARRRILLKKNRHKRAGHGAKNKLKPITILTEKSERFRKKLIERWACEIADFFIKNKVGTVQMENLESMKRKEDSYFNIRLRGFWPYAEMQNKIEFKLKQYGIEIRKVAPNNTSKTCSKCGHLNNYFNFEYRKKNKFPHFKCEKCNFKENADYNAALNISNPKLKSTKEEP |  |  | reduced the DNA cleavage activity |
| Cas12f I118R/Y122A/I126R/M178R (RARR) mutant (protein) MAKNTITKTLKLRIVRPYNSAEVEKIVADEKNNREKIALEKNKDKVKEACSKHLKVAAYCTTQVERNACLFCKARKLDDKFYQKLRGQFPDAVFWQEISEIFRQLQKQAAEIYNQSLRELYAEIFRKGKGIANASSVEHYLSDVCYTRAAELFKNAAIASGLRSKIKSNFRLKELKNRKSGLPTTKSDNFPIPLVKQKGGQYTGFEISNHNSDFIIKIPFGRWQVKKEIDKYRPWEKFDFEQVQKSPKPISLLLSTQRRKRNKGWSKDEGTEAEIKKVMNGDYQTSYIEVKRGSKIGEKSAWMLNLSIDVPKIDKGVDPSIIGGIDVGVKSPLVCAINNAFSRYSISDNDLFHFNKKMFARRRILLKKNRHKRAGHGAKNKLKPITILTEKSERFRKKLIERWACEIADFFIKNKVGTVQMENLESMKRKEDSYFNIRLRGFWPYAEMQNKIEFKLKQYGIEIRKVAPNNTSKTCSKCGHLNNYFNFEYRKKNKFPHFKCEKCNFKENADYNAALNISNPKLKSTKEEP |  |  | lacked the DNA cleavage activity |
